# Target: Recombinant P-selectin protein (UniProt P16109)
# Assay: SPR; BIAcore T200; recombinant P-selectin immobilised by carbodiimide chemistry on a CM4 sensor chip (ligand); PSGL-1-targeted and non-targeted liposomes as analyte
# Sequence of UniProt P16109 (P16109 42-830): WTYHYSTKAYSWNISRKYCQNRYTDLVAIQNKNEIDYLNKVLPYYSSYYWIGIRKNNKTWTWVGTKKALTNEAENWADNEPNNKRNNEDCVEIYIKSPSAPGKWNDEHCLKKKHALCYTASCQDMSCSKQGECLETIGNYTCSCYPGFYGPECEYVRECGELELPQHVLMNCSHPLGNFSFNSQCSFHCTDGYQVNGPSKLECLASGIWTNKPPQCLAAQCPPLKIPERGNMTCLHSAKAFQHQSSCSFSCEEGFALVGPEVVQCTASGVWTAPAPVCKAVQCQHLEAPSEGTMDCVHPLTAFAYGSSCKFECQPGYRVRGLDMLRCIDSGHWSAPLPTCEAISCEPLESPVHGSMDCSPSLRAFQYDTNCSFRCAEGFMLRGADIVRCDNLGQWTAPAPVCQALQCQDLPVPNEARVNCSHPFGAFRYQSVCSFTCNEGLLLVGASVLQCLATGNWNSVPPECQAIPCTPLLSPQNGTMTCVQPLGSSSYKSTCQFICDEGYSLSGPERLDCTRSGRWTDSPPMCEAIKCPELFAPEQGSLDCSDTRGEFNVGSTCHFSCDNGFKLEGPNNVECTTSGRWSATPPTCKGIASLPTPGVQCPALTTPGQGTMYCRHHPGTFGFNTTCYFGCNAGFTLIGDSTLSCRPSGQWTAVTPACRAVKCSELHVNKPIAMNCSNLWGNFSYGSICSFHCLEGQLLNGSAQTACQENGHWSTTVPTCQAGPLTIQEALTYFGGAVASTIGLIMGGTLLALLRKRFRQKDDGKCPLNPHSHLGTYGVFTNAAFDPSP
substance,measurement,value
"Recombinant P-selectin glycoprotein ligand-1 (PSGL-1) protein, conjugated to the surface of liposomes (from UniProt Q14242 42-412)",fold increase in binding against non-targeted liposomes,8 fold

# Reference: publication PMC7699624
